Where two headings read alike, the source gives them in different places.

The target of test [1] is T1, mesothelin (MSLN) on MSLN-expressing tumor cells (human, UniProt Q13421 296-598).
T1 construct: whole, on cells; also called native MSLN; MSLN+ H226 cells
Briefly: assay not given; matches Table 16 (OVCAR-3 cells); reference v32523.

Test [2] addresses T2, CD3 on CD3+ Jurkat cells and primary human T cells (human, UniProt P07766 23-207).
T2 construct: whole, on cells; also called native CD3; CD3ε
The test can be described thus: flow cytometry on human pan T cells, CD8+ gate (Alexa Fluor 647 anti-IgG-Fc, MFI).
Target sequence in this assay (P07766 23-207): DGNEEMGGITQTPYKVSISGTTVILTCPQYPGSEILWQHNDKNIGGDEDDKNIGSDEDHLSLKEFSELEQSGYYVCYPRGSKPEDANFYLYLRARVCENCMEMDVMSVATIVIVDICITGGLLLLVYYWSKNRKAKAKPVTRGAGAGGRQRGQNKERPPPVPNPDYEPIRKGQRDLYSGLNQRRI

Test [3] concerns the target T2, CD3 on CD3+ Jurkat cells and primary …. Briefly: whole-cell flow cytometry on primary human T cells, apparent affinity.
Target sequence in this assay (P07766 23-207): as above
Test [4] addresses T3, MSLN (form in the assay not stated) (UniProt Q13421 296-580). Briefly: method and antigen form not stated in Table 12.
In test [5] the target is T1, mesothelin (MSLN) on MSLN-expressing …. The test can be described thus: whole-cell flow cytometry on OVCAR-3 cells, apparent affinity.
In test [6] the target is T2, CD3 on CD3+ Jurkat cells and primary …. The test can be described thus: flow cytometry on human pan T cells, CD4+ gate (Alexa Fluor 647 anti-IgG-Fc, MFI).
Target sequence in this assay (P07766 23-207): as above
Test [7] deals with T1, mesothelin (MSLN) on MSLN-expressing …. Briefly: cell-based or functional assay.
The target of test [8] is T2, CD3 on CD3+ Jurkat cells and primary …. Briefly: flow cytometry on human pan T cells, CD4+ and CD8+ cells together (Alexa Fluor 647 anti-IgG-Fc, MFI).
Target sequence in this assay (P07766 23-207): as above
The target in test [9] is T1, mesothelin (MSLN) on MSLN-expressing ….
Test [10] deals with T3, MSLN (form in the assay not stated). The test can be described thus: method not stated; reference v29191.
Test [11] addresses T2, CD3 on CD3+ Jurkat cells and primary …. Briefly: flow cytometry on primary human T cells, apparent affinity.
Test [12] addresses T1, mesothelin (MSLN) on MSLN-expressing …. This is another data set of the same source.
Test [13] concerns the target T2, CD3 on CD3+ Jurkat cells and primary …. The test can be described thus: whole-cell ELISA on CD3+ Jurkat cells, apparent affinity.
For test [14] the target is unchanged. The test can be described thus: cell ELISA on whole CD3+ Jurkat cells (HRP anti-human IgG Fc, A 450nm).
Test [15] has as its target T1, mesothelin (MSLN) on MSLN-expressing …. Briefly: cell-based or functional assay. The source holds these as a separate data set.
Test [16] shares this target. The source holds these as a separate data set.
Test [17] has as its target T3, MSLN (form in the assay not stated). Briefly: method not stated; reference v31805.
The target in test [18] is T2, CD3 on CD3+ Jurkat cells and primary …. The test can be described thus: whole-cell ELISA on CD3+ Jurkat cells, apparent affinity; Jurkat cells.
Target sequence in this assay (P07766 23-207): as above
The target of test [19] is T4, v31805, MH6T-TriTAC benchmark construct [MSLN (VHH) x Alb (VHH) x CD3 (scFv)]. The test can be described thus: SPR, BioRad ProteOn XPR36, 25 C, CD3 epsilon/delta-Fc captured on anti-Fc chip.
Test [20] has as its target T4, v31805, MH6T-TriTAC benchmark construct …. The test can be described thus: SPR, BioRad ProteOn XPR36, 25 C, CD3 epsilon/delta-Fc captured on anti-Fc chip; value as printed, implausible for ka.

T1 sequence (Q13421 other isoform, or with tags, fused parts or gaps limits assumed): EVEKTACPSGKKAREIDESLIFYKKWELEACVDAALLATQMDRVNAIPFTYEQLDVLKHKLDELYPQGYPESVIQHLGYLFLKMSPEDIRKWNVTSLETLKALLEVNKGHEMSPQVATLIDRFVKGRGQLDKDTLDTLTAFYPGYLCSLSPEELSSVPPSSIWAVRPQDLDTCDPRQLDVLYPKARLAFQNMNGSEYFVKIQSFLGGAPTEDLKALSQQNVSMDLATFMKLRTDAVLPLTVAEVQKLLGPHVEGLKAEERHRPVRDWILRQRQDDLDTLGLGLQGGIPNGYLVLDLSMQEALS
T3 sequence (Q13421 other isoform, or with tags, fused parts or gaps limits assumed): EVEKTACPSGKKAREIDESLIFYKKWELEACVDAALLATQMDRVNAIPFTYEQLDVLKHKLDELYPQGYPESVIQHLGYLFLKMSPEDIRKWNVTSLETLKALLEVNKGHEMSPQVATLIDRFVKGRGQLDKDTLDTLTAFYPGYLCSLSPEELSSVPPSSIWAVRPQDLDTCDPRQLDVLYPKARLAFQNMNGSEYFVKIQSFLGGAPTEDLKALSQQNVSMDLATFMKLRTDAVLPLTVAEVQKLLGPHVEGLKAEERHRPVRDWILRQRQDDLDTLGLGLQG

B1: v29191, 2+1 Fab^3 TCB benchmark construct [MSLN (2 Fab) x CD3 (1 Fab)] (bispecific antibody, human IgG1, kappa, L234A L235A)
heavy 1: not shown
heavy 2: QVQLVQSGAEVKKPGASVKVSCKASGYSFTGYTMNWVRQAPGQGLEWMGLITPYNGASSYNQKFRGKATMTVDTSTSTVYMELSSLRSEDTAVYYCARGGYDGRGFDYWGQGTLVTVSSASTKGPSVFPLAPSSKSTSGGTAALGCLVEDYFPEPVTVSWNSGALTSGVHTFPAVLQSSGLYSLSSVVTVPSSSLGTQTYICNVNHKPSNTKVDEKVEPKSCDKTHTCPPCPAPEAAGGPSVFLFPPKPKDTLMISRTPEVTCVVVDVSHEDPEVKFNWYVDGVEVHNAKTKPREEQYNSTYRVVSVLTVLHQDWLNGKEYKCKVSNKALGAPIEKTISKAKGQPREPQVCTLPPSRDELTKNQVSLSCAVKGFYPSDIAVEWESNGQPENNYKTTPPVLDSDGSFFLVSKLTVDKSRWQQGNVFSCSVMHEALHNHYTQKSLSLSPG
light 1: EVQLLESGGGLVQPGGSLRLSCAASGFTFSTYAMNWVRQAPGKGLEWVSRIRSKYNNYATYYADSVKGRFTISRDDSKNTLYLQMNSLRAEDTAVYYCVRHGNFGNSYVSWFAYWGQGTLVTVSSASVAAPSVFIFPPSDEQLKSGTASVVCLLNNFYPREAKVQWKVDNALQSGNSQESVTEQDSKDSTYSLSSTLTLSKADYEKHKVYACEVTHQGLSSPVTKSFNRGEC
light 2: DIQMTQSPSSLSASVGDRVTITCSASSSVSYMHWYQQKSGKAPKLLIYDTSKLASGVPSRFSGSGSGTDFTLTISSLQPEDFATYYCQQWSKHPLTFGQGTKLEIKRTVAAPSVFIFPPSDRKLKSGTASVVCLLNNFYPREAKVQWKVDNALQSGNSQESVTEQDSKDSTYSLSSTLTLSKADYEKHKVYACEVTHQGLSSPVTKSFNRGEC
notes: also called Fab^3 benchmark
Turning to B1, in test [1], the “fold higher relative affinity vs v32523” value came to 7 fold. Moreover, the entries for the “EC50 (read off the curve)” value in test [2], in [6] and in test [8] were approximately 30 nM, approximately 20 nM and approximately 20 nM, respectively. Besides, the results for the EC50 in test [3] and in [5] were 18.7 nM and 0.4 nM, respectively. Also, in test [4], the “Affinity to MSln” value amounted to 0.02 nM. Besides, the “IC50 of T cell-dependent cytotoxicity on OVCAR-3 cells (pan T cells, E:T 5:1, 72 h)” value in test [7] is 0.89 pM.

B2: v21812, trivalent and bispecific antibody construct [MSLN (2 scFv) x CD3 (1 Fab)] (bispecific antibody, human IgG1, lambda, L234A L235A)
heavy 1: QVQLVQSGAEVKKPGASVKVSCKASGYSFTGYTMNWVRQAPGQGLEWMGLITPYNGASSYNQKFRGKATMTVDTSTSTVYMELSSLRSEDTAVYYCARGGYDGRGFDYWGQGTLVTVSSGGGGSGGGGSGGGGSDIQMTQSPSSLSASVGDRVTITCSASSSVSYMHWYQQKSGKAPKLLIYDTSKLASGVPSRFSGSGSGTDFTLTISSLQPEDFATYYCQQWSGYPLTFGQGTKLEIKAAEPKSSDKTHTCPPCPAPEAAGGPSVFLFPPKPKDTLMISRTPEVTCVVVSVSHEDPEVKFNWYVDGVEVHNAKTKPREEQYNSTYRVVSVLTVLHQDWLNGKEYKCKVSNKALPAPIEKTISKAKGQPREPQVYVLPPSRDELTKNQVSLLCLVKGFYPSDIAVEWESNGQPENNYLTWPPVLDSDGSFFLYSKLTVDKSRWQQGNVFSCSVMHEALHNHYTQKSLSLSPG
heavy 2: not shown
light: NFMLTQPHSVSESPGKTVTISCKRNTGNIGSNYVNWYQQHEGSSPTTIIYRNDKRPDGVSDRFSGSIDRSSKSASLTISNLKTEDEADYFCQSYSSGFIFGGGTKLTVLGQPKAAPSVTLFPPSSEELQANKATLVCLISDFYPGAVTVAWKADSSPVKAGVETTTPSKQSNNKYAASSYLSLTPEQWKSHRSYSCQVTHEGSTVEKTVAPTECS
notes: also called parental construct of v32523; dual scFv trivalent variant
Turning to B2, the EC50 in test [9] was 0.4 nM; in [11], 58.8 nM; in test [13], 17.7 nM. Further, the “fold lower binding affinity vs v29191” value in test [10] is approximately 45 fold. For the same molecule, in test [12], the Kd is approximately 0.47 nM. Moreover, the “Affinity to MSln” value in [4] is 0.9 nM. Also, the “EC50 (read off the curve)” value in [14] is approximately 9 nM; in test [16], approximately 0.5 nM. Moreover, the “maximum killing of BxPC3 cells” value in test [15] was 75%. Moreover, in test [7], the “IC50 of T cell-dependent cytotoxicity on OVCAR-3 cells (pan T cells, E:T 5:1, 72 h)” value came to 0.05 pM. The “fold lower affinity vs v31805” value in test [17] was approximately 20 fold.

B3: v21791, trivalent and bispecific antibody construct [MSLN (2 Fab) x CD3 (1 Fab)] (bispecific antibody, human IgG1, kappa, lambda, L234A L235A)
heavy 1: not shown
heavy 2: QVQLVQSGAEVKKPGASVKVSCKASGYSFTGYTMNWVRQAPGQGLEWMGLITPYNGASSYNQKFRGKATMTVDTSTSTVYMELSSLRSEDTAVYYCARGGYDGRGFDYWGQGTLVTVSSASTKGPSVFPRAPSSKSTSGGTAALGCLVKDYFPEPVTVSWNSGALTSGVHTFPAVLQSSGLYKLSSVVTVPSSSLGTQTYICNVNHKPSNTKVDKKVEPKSCDKTHTCPPCPAPEAAGGPSVFLFPPKPKDTLMISRTPEVTCVVVSVSHEDPEVKFNWYVDGVEVHNAKTKPREEQYNSTYRVVSVLTVLHQDWLNGKEYKCKVSNKALPAPIEKTISKAKGQPREPQVYVLPPSRDELTKNQVSLLCLVKGFYPSDIAVEWESNGQPENNYLTWPPVLDSDGSFFLYSKLTVDKSRWQQGNVFSCSVMHEALHNHYTQKSLSLSPG
light 1: NFMLTQPHSVSESPGKTVTISCKRNTGNIGSNYVNWYQQHEGSSPTTIIYRNDKRPDGVSDRFSGSIDRSSKSASLTISNLKTEDEADYFCQSYSSGFIFGGGTKLTVLGQPKAAPSVTLFPPSSEQLQANKARLVCLISDFYPGAVTVAWKADSSPVKAGVETTTPSKQSNNKYAASSYLSLTPEQWKSHKSYSCQVTHEGSTVEKTVAPAECS
light 2: DIQMTQSPSSLSASVGDRVTITCSASSSVSYMHWYQQKSGKAPKLLIYDTSKLASGVPSRFSGSGSGTDFTLTISSLQPEDFATYYCQQWSGYPLTFGQGTKLEIKRTVAAPSVFIFPPSDEQLKSGTASVGCWLNNFYPREAKVQWKVDNALQSGNSQESVTEQDSKDSTYSLDSTLELSKADYEKHKVYACEVTHQGLSSPVTKSFNRGEC
notes: also called Fab^3 construct; triple-Fab construct
For B3, the EC50 in test [9] stood at 1.9 nM; in [11] it was 7.4 nM; in [18], 402 nM. The “maximum killing of BxPC3 cells” value in test [15] is 60%. Further, the “EC50 (read off the curve)” value in [16] is approximately 0.7 nM.

B4: Recombinant CD3epsilon/delta Fc fusion protein (Sino Biological) (Fc fusion)
chain 1: DGNEEMGGITQTPYKVSISGTTVILTCPQYPGSEILWQHNDKNIGGDEDDKNIGSDEDHLSLKEFSELEQSGYYVCYPRGSKPEDANFYLYLRARVCENCMEMD
chain 2: FKIPIEELEDRVFVNCNTSITWVEGTVGTLLSDITRLDLGKRILDPRGIYRCNGTDIYKDKESTVQVHYRMCQSCVELDPATVA
notes: also called recombinant CD3 fusion protein
Regarding B4, in [19], the Kd amounted to 0.75 nM and the koff stood at 0.00379 s⁻¹. In addition, the kon in test [20] was found to be 5.04e+06 M⁻¹ s⁻¹.

The record behind these values is patent US20240327516A1 (Zymeworks, published 2024).
